# Paper PMC7105311, “Structure and function of Bs164 β-mannosidase from Bacteroides salyersiae the founding member of glycoside hydrolase family GH164” (The Journal of Biological Chemistry, 2019)
# Molecular target: Bs164 β-mannosidase from Bacteroides salyersiae CL02T12C01 (His6 tag removed) (Bacteroides salyersiae CL02T12C01)
# Assay: SEC-MALS; Superdex S200 10/300, 80 mM MES (pH 5.5), 200 mM NaCl, room temperature (20 ± 2 °C), 100 μl injected at 5 mg/ml
substance,measurement,value
Bs164 β-mannosidase from Bacteroides salyersiae CL02T12C01 (His6 tag removed) (enzyme),stoichiometry N,3
